Laboratory results taken from the supplement of paper PMC11502859.

Test system: HEK293T
Assay: median enrichment of reporter reads in eGFP-reduced (low/intermediate) vs eGFP-high sorted cells (eGFP-extension fusion abundance) (ratio); higher = stronger loss of eGFP-fusion protein abundance (more destabilising extension)
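Further: lentiviral eGFP-IRES-mCherry reporter pool sorted by FACS 96 h post-transduction, gated on mCherry-high cells, Illumina read counts normalized per million, median across four biological replicates.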

Compared with “WKRLGRGSGRGLSPPEAGKESLFSHMIFRVLETHSCRSCRTLEFLGNCPAS [GPR83]”, “WKTCSLSILPMKIHFTHPPPLLFCHVFPSLCIARFEVTDTHPKPCCSQSPILHILMGK [SYNJ2BP]” is lower in median enrichment: 13.9 for the first, 7.06 for the second.

Compared with WLEWIYDVPLRRSISATILI [HMGCLL1], WLFCKSVLGGPSLRV [OR9A2] is lower in median enrichment: 12.2 for the first, 4.81 for the second.

Compared with WLHNPVYAFCTKKK [ZSCAN5A], WLHW [RIMKLB] is lower in median enrichment: 8.24 for the first, 3.98 for the second.

Compared with WLLITLSHFLVMH [KRTAP22-2], WLQNY [IFNAR2] is lower in median enrichment: 13.9 for the first, 10.5 for the second.

Compared with WLQPAKSILLFHFFHDGAV [CTSK], WLQTC [RAB39A] is lower in median enrichment: 8.37 for the first, 5.31 for the second.

Going from WLSF [KRT28] to WLSLRKGRRRGAQGHLLP, the median enrichment rises from 6.06 to 28.3.

First: WLTAALAHSARGQDGGYLRPVLSCLFVFLIRDHVGLLRTRKAGKFPAGPSA [MKS1]
Second: WLTLSLCCLLLS [SIRPB1]
The median enrichment of the first is lower: 10.7 for the first, 18.9 for the second.

Compared with WLVAIFQHSSCIL [LVRN], “WLVGLGSSARTSSPALAVVVQALQSAAGLFIKGIYICK [NRN1L]” is lower in median enrichment: 13.3 for the first, 7.25 for the second.

Going from WLVTEDEDNSITKLF [CD58] to WLYESFCHKVPKRRGMGRVPQHVVTA [DSN1], the median enrichment falls from 17.6 to 11.

Going from WLYLRFEAGKPDR [UGT2B10] to WMLSRSWRFKKKCRMAV [OR52D1], the median enrichment rises from 6.76 to 23.1.

Going from WMQLVCHSI [SERPINB4] to “WMSMSEGKENFGHQNPAPSELKELIYFMKLILLCVCSWC [GALNT15]”, the median enrichment rises from 10.7 to 26.8.

First: WMVLSAGSPLRSGQRKMGGCSSPPQHNDQPPS [NLRP12]
Second: WNEKYCGHLNNGLVSYNEMFSRILK [UGP2]
The median enrichment of the first is higher: 13.1 for the first, 3.44 for the second.

Compared with “WNEPWSPLQSSPWDRDVAGQNSQLCVCVFRLIGNSKSLLPAPSKLDGQWSGIETVV [IL18RAP]”, WNFENKI [RNASEH2B] is lower in median enrichment: 5.03 for the first, 0.528 for the second.

Compared with WNHRSGRSRALSSCTVFIVPGTLFKDI [LIN7B], “WNLLSMILPATPLPSLAQSRGAMLSAHPSCTLAPCSRDVSTHSLC [MYPOP]” is higher in median enrichment: 4.84 for the first, 7.81 for the second.

First: WNMKAEMQQTTSA [MNDA]
Second: WNQS [CFHR1]
The median enrichment of the first is higher: 0.66 for the first, 0.596 for the second.

First: WNR [ZC3HAV1]
Second: WNRIEQNRIE [PCSK5]
The median enrichment of the first is lower: 0.487 for the first, 0.778 for the second.

WPDLSERHGYHRMKVEL [CUTC] and WPEPLADITAGDEEPGLLLLLPVAPGVEVG [LIMD1] are the same in median enrichment: 12 for the first, 12 for the second.

Going from WPFSWATLQSLPPFGR [ZNRD1] to WPG [KDM8], the median enrichment falls from 6.12 to 0.882.

Compared with “WPGGGKHREREWPSGNPAGYPNPKGSYSQRHILVFVIILYQK [VPS26C]”, “WPHPAPPPPRPTRRPPDSSPGASSATPSLHPWGPSPPACTEQGLGVSWEA [ITGB4]” is lower in median enrichment: 16.9 for the first, 1.34 for the second.

First: WPLDVGKPCGPPLITSSPRMTAEPQASGAGLMYPNLGQHDCRSIQSLPAPSMKGPPKTVLGTQCVAGSPPS [MINDY4]
Second: WPLGRPPAQLPCPPPPSSSGFSVLGRLSWGRRWEGRDQLSSLAGKRGCGSQGGLQGTGMSGGHQAQRKRKQREFTGPPEKSQS [CRHR2]
The median enrichment of the first is lower: 0.736 for the first, 1.19 for the second.

Compared with “WPLQQNSFVLCGAMPSLTPNRVSVILRTFYPQHL [CPNE3]”, “WPLSPHPHLHPRTSLAIGAGPLQTLIPTPTEPLAQVPLVLPHSLAARCPGAHPCRAPKDGEVGGQELLSPTFHAPPLCI [GIT1]” is lower in median enrichment: 16.4 for the first, 3.23 for the second.

Compared with WPMLNTHV [NABP1], “WPPGTSLALLTHPRNTISGTRAAPRTRGYSRHNLIERAPAALTSTAFDTYASLVLLLSSESSCAHAFSRMGSPLAVAASVLAL [KIAA1522]” is higher in median enrichment: 0.435 for the first, 8.47 for the second.

Going from WPPPAPTRPRRALSIS [SLCO4A1] to WPPPASLSPHP [TTC24], the median enrichment falls from 9.47 to 0.329.

Compared with WPQFQLSWAPAWTLPMAMPSLGNLSLPSVG [PLA2G3], “WPRLSTCHLLACLTLRTHLPGPSLFHPREAELPKTQVFSYLFPILRGFP [ZDHHC18]” is higher in median enrichment: 12.4 for the first, 17.8 for the second.

Going from “WPSLPPKPRACLSAQLEGPRLQGVLPQSRCFLCIRDPLPSHPVSCLHRWIIFEPPCVDHFEPPGLAQFILIKVFLGGILGT [PARVG]” to “WPSLRPTCTSGSKWVSSGSPARVLSECLCVCINICIPFGSIAAV [XPNPEP3]”, the median enrichment rises from 9.47 to 17.

First: WPSPPCQGQDPDFSKCGSHSAGTCRDMRGGCCHGRLPLHTRHWGSDPPGRWPFSPSS [CYSRT1]
Second: WPSSLPPKPTTQC [KPNA7]
The median enrichment of the first is higher: 2.04 for the first, 0.282 for the second.

Going from WPTSRIYSSWKLPNGEDSTKY [KRTAP24-1] to WPV [HNRNPUL1], the median enrichment falls from 3.66 to 0.672.

First: WPVPGALLRPTTASWVGRTGSGGKSQRDQDGGCGAAFPVASIARRVFVCLSVFLTSFFYIFISRQS [NR6A1]
Second: WPVRPLSSPS [TBL3]
The median enrichment of the first is higher: 9.66 for the first, 0.256 for the second.

Going from WPYWLTPENGLLLDGHGRINFSKMFWVGVE [ACTL8] to WQAAGAWGLHWLPPAP [HNF4A], the median enrichment rises from 1.37 to 5.96.

Substance WQAGS [IFITM5] has a median enrichment of 0.552.
